What follows are sequences tested on Escherichia coli TOP10 (assay: shrunken log2 fold change of peptide-encoding DNA abundance (4.5 h post-induction vs induction); higher = less antimicrobial activity (less host growth inhibition)). Details: time post-induction: 4.5 h; library: site-saturation at positions 5, 18, 19, 20.
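Note: peptides expressed intracellularly from a pBAD plasmid library in pooled LB shake-flask culture, induced with 0.3% L-arabinose, DNA abundance read by NGS, three biological replicates, DESeq2 with apeglm shrinkage.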

Sequence	shrunken log2 fold change
RRIRWRPPRLPRPRPRPSNFPRP	-0.391
RRIRCRPPRLPRPRPRPAKFPRP	0.154
RRIRIRPPRLPRPRPRPFQEPRP	-0.0383
RRIRCRPPRLPRPRPRPHCEPRP	-0.226
RRIRERPPRLPRPRPRPKPCPRP	0.133
RRIRARPPRLPRPRPRPHRAPRP	0.216
RRIRQRPPRLPRPRPRPFHCPRP	-0.192
RRIRTRPPRLPRPRPRPTCTPRP	-0.094
RRIRMRPPRLPRPRPRPMSYPRP	-0.175
RRIRARPPRLPRPRPRPMIIPRP	-0.0301
RRIRTRPPRLPRPRPRPYFCPRP	-0.0855
RRIRIRPPRLPRPRPRPFFMPRP	-0.538
RRIRFRPPRLPRPRPRPDEFPRP	-0.267
RRIRLRPPRLPRPRPRPHLWPRP	0.0492
RRIRWRPPRLPRPRPRPIAKPRP	-0.283
RRIRQRPPRLPRPRPRPGLSPRP	0.0405
RRIRYRPPRLPRPRPRPCGQPRP	-0.0335
RRIRMRPPRLPRPRPRPGFEPRP	0.526
RRIRTRPPRLPRPRPRPESEPRP	-0.0433
RRIRERPPRLPRPRPRPVCCPRP	-0.163
RRIRFRPPRLPRPRPRPIPAPRP	-0.15
RRIRNRPPRLPRPRPRPTPHPRP	0.284
RRIRLRPPRLPRPRPRPLLRPRP	0.196
RRIRPRPPRLPRPRPRPYHKPRP	-1.15
RRIRFRPPRLPRPRPRPLMFPRP	-0.695

Sequence	shrunken log2 fold change
RRIRLRPPRLPRPRPRPPMNPRP	-0.114
RRIRHRPPRLPRPRPRPRQIPRP	-0.0442
RRIRQRPPRLPRPRPRPQSIPRP	-0.0322
RRIRARPPRLPRPRPRPSKMPRP	-0.00925
RRIRVRPPRLPRPRPRPCCGPRP	-0.248
RRIRARPPRLPRPRPRPWPNPRP	0.111
RRIRIRPPRLPRPRPRPKYTPRP	-0.686
RRIRMRPPRLPRPRPRPQYLPRP	-0.0275
RRIRVRPPRLPRPRPRPSFPPRP	-0.627
RRIRPRPPRLPRPRPRPDGAPRP	0.159
RRIRERPPRLPRPRPRPASEPRP	-0.123
RRIRTRPPRLPRPRPRPLSRPRP	-0.45
RRIRARPPRLPRPRPRPGLYPRP	-0.077
RRIRIRPPRLPRPRPRPRFDPRP	-0.282
RRIRMRPPRLPRPRPRPVHPPRP	0.127
RRIRERPPRLPRPRPRPGIFPRP	0.099
RRIRHRPPRLPRPRPRPRQCPRP	-0.0969
RRIRIRPPRLPRPRPRPELWPRP	0.243
RRIRSRPPRLPRPRPRPKAGPRP	0.19
RRIRWRPPRLPRPRPRPNFHPRP	-0.0344
RRIRFRPPRLPRPRPRPWAVPRP	-0.0667
RRIRWRPPRLPRPRPRPNKIPRP	-0.432
RRIRQRPPRLPRPRPRPLAQPRP	0.233
RRIRTRPPRLPRPRPRPRINPRP	-0.506
RRIRGRPPRLPRPRPRPQGTPRP	-0.0716

Sequence	shrunken log2 fold change
RRIRRRPPRLPRPRPRPTWEPRP	0.0289
RRIRARPPRLPRPRPRPEGFPRP	0.566
RRIRWRPPRLPRPRPRPLMDPRP	0.185
RRIRTRPPRLPRPRPRPQHAPRP	-0.0164
RRIRDRPPRLPRPRPRPIWVPRP	-0.0618
RRIRNRPPRLPRPRPRPDWKPRP	-0.11
RRIRKRPPRLPRPRPRPWVCPRP	0.324
RRIRSRPPRLPRPRPRPKDNPRP	-0.232
RRIRMRPPRLPRPRPRPWYLPRP	-0.0736
RRIRYRPPRLPRPRPRPNIYPRP	-0.68
RRIRVRPPRLPRPRPRPPRPPRP	0.648
RRIRARPPRLPRPRPRPADPPRP	0.611
RRIRKRPPRLPRPRPRPNYYPRP	-0.305
RRIRYRPPRLPRPRPRPGSFPRP	-0.0331
RRIRVRPPRLPRPRPRPQFNPRP	-0.389
RRIRKRPPRLPRPRPRPSWGPRP	0.00315
RRIRFRPPRLPRPRPRPKARPRP	0.297
RRIRWRPPRLPRPRPRPVLMPRP	-0.0411
RRIRRRPPRLPRPRPRPTPAPRP	1.55
RRIRLRPPRLPRPRPRPKLIPRP	-0.219
RRIRYRPPRLPRPRPRPCRVPRP	0.00293
RRIRRRPPRLPRPRPRPGRCPRP	0.27
RRIRWRPPRLPRPRPRPFAEPRP	0.801
RRIRDRPPRLPRPRPRPHSLPRP	-0.341
RRIRPRPPRLPRPRPRPWRTPRP	0.141

Sequence	shrunken log2 fold change
RRIRKRPPRLPRPRPRPVRRPRP	0.377
RRIRRRPPRLPRPRPRPWHMPRP	0.0729
RRIRGRPPRLPRPRPRPWPHPRP	0.074
RRIRLRPPRLPRPRPRPALYPRP	0.193
RRIRNRPPRLPRPRPRPIMYPRP	-0.309
RRIRSRPPRLPRPRPRPSEVPRP	-0.015
RRIRIRPPRLPRPRPRPAWYPRP	0.0724
RRIRVRPPRLPRPRPRPGALPRP	0.0362
RRIRVRPPRLPRPRPRPHERPRP	-0.13
RRIRERPPRLPRPRPRPNKDPRP	-0.321
RRIRHRPPRLPRPRPRPYEPPRP	-0.451
RRIRIRPPRLPRPRPRPPNSPRP	0.0359
RRIRTRPPRLPRPRPRPFGKPRP	-0.00963
RRIRLRPPRLPRPRPRPTGYPRP	-0.206
RRIRVRPPRLPRPRPRPWQNPRP	0.013
RRIRARPPRLPRPRPRPALYPRP	0.332
RRIRNRPPRLPRPRPRPGWCPRP	2.24
RRIRMRPPRLPRPRPRPWYNPRP	-0.044
RRIRPRPPRLPRPRPRPFKTPRP	-0.199
RRIRERPPRLPRPRPRPKFAPRP	-0.139
RRIRCRPPRLPRPRPRPDDMPRP	-0.477
RRIRPRPPRLPRPRPRPWGQPRP	0.0568
RRIRLRPPRLPRPRPRPADHPRP	-0.53
RRIRFRPPRLPRPRPRPSQYPRP	-0.292
RRIRERPPRLPRPRPRPRGSPRP	0.147

Sequence	shrunken log2 fold change
RRIRVRPPRLPRPRPRPVALPRP	0.0693
RRIRERPPRLPRPRPRPPGTPRP	0.152
RRIRARPPRLPRPRPRPPHTPRP	0.739
RRIRIRPPRLPRPRPRPDVHPRP	-0.00757
RRIRFRPPRLPRPRPRPWAMPRP	-0.0609
RRIRFRPPRLPRPRPRPPRNPRP	0.263
RRIRPRPPRLPRPRPRPSSVPRP	0.0854
RRIRKRPPRLPRPRPRPWHAPRP	-0.0686
RRIRMRPPRLPRPRPRPWIPPRP	-0.205
RRIRARPPRLPRPRPRPKCLPRP	0.613
RRIRCRPPRLPRPRPRPMHKPRP	-0.203
RRIRKRPPRLPRPRPRPNKQPRP	-0.0316
RRIRPRPPRLPRPRPRPGWHPRP	0.248
RRIRNRPPRLPRPRPRPCSRPRP	-0.0877
RRIRARPPRLPRPRPRPHVYPRP	-0.0492
RRIRARPPRLPRPRPRPYHDPRP	-0.365
RRIRARPPRLPRPRPRPEQIPRP	0.419
RRIRYRPPRLPRPRPRPHAMPRP	-0.221
RRIRPRPPRLPRPRPRPNFAPRP	0.445
RRIRHRPPRLPRPRPRPMYHPRP	-0.287
RRIRLRPPRLPRPRPRPVAPPRP	0.474
RRIRLRPPRLPRPRPRPATHPRP	0.253
RRIRFRPPRLPRPRPRPQIAPRP	0.111
RRIRLRPPRLPRPRPRPLRKPRP	0.183
RRIRMRPPRLPRPRPRPDVYPRP	-0.119

Sequence	shrunken log2 fold change
RRIRSRPPRLPRPRPRPQCHPRP	-0.113
RRIRPRPPRLPRPRPRPTNSPRP	-0.195
RRIRARPPRLPRPRPRPCEGPRP	0.0679
RRIRRRPPRLPRPRPRPEKGPRP	-0.0235
RRIRARPPRLPRPRPRPGWWPRP	0.235
RRIRMRPPRLPRPRPRPQQDPRP	0.741
RRIRDRPPRLPRPRPRPIIEPRP	0.479
RRIRPRPPRLPRPRPRPTMFPRP	-0.164
RRIRCRPPRLPRPRPRPKMSPRP	0.157
RRIRFRPPRLPRPRPRPLPDPRP	0.138
RRIRPRPPRLPRPRPRPVGLPRP	0.478
RRIRWRPPRLPRPRPRPHYMPRP	-0.825
RRIRMRPPRLPRPRPRPYNKPRP	-0.561
RRIRSRPPRLPRPRPRPMKYPRP	-0.278
RRIRSRPPRLPRPRPRPATPPRP	0.373
RRIRWRPPRLPRPRPRPDYKPRP	-0.0643
RRIRERPPRLPRPRPRPHIQPRP	-0.705
RRIRNRPPRLPRPRPRPSQNPRP	-0.386
RRIRWRPPRLPRPRPRPYKNPRP	-0.61
RRIRARPPRLPRPRPRPLFYPRP	-0.312
RRIRCRPPRLPRPRPRPNIEPRP	-0.279
RRIRVRPPRLPRPRPRPRNGPRP	0.0197
RRIRHRPPRLPRPRPRPPQGPRP	0.133
RRIRARPPRLPRPRPRPGNDPRP	-0.00116
RRIRARPPRLPRPRPRPVLPPRP	0.286
